Data published in patent publication US20260374889 (published 2026).
Residue numbers refer to the chain shown, from its start. One block for each binder: values may come before it.

Biological target: T1, human BCMA on CHO cells (human)
T1 chain: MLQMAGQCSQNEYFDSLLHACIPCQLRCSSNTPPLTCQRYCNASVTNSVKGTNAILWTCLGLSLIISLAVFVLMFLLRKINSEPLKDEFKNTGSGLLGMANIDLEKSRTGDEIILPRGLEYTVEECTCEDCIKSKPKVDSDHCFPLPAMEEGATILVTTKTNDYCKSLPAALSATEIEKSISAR
Experiment: FACS

B2: P1AG7196 BCMA arm (antibody, V domains shown)
VH: EVQLLESGGGLVQPGGSLRLSCAASGFTFSNAWMDWVRQAPGKGLEWVSQITAKSNNYATYYADSVKGRFTISRDNSKNTLYLQMNSLRAEDTAVYYCTDDGYHWGQGTLVTVSS
VL: DIQMTQSPSSLSASVGDRVTITCRASEDIRNGLAWYQQKPGKAPKLLIYNANSLHTGVPSRFSGSGSGTDFTLTISSLQPEDFATYYCEDTSKYPYTFGQGTKLEIK
- EC50: 18.1 nM

B3: P1AG7285 BCMA arm (antibody, V domains shown)
VH: QVQLVQSGAEVKKPGASVKVSCKASGYTFTNYWMHWVRQAPGQGLEWMGIIHPNSGSTNYNEKFQGRVTMTRDTSTSTVYMELSSLRSEDTAVYYCARGIYDYPFAYWGQGTLVTVSS
VL: DIQMTQSPSSLSASVGDRVTITCRASESVSIHGTHLMHWYQQKPGKAPKLLIYAASSLQSGVPSRFSGSGSETDFTLTISSLQPEDFATYYCQQSIEDPYTFGGGTKVEIK
- EC50: 25.6 nM

B6: P1AG7191 BCMA arm (antibody, V domains shown)
VH: B3 VH
VL: B3 VL
- EC50: 19.8 nM

Now those with a lower EC50, led by results:

- EC50: 16.3 nM
B1: P1AG7207 BCMA arm (antibody, V domains shown)
VH: B2 VH
VL: B2 VL

- EC50: 13.8 nM
B4: P1AG7200 BCMA arm (antibody, V domains shown)
VH: B3 VH
VL: B3 VL with S57N, Q59E, E72G

- EC50: 16.5 nM
B5: P1AG7215 BCMA arm (antibody, V domains shown)
VH: B3 VH
VL: B3 VL with S57N, Q59E, E72G

- EC50: 5.55 nM
B7: BCMA (PR)-CD28v8 P1AF7062, BCMA arm (antibody, V domains shown)
VH: EVQLLESGGGLVQPGGSLRLSCAASGFTFSSYAMNWVRQAPGKGLEWVSAITASGGSTYYADSVKGRFTISRDNSKNTLYLQMNSLRAEDTAVYYCARYWPMSLWGQGTLVTVSS
VL: EIVLTQSPGTLSLSPGERATLSCRASQSVSAYYLAWYQQKPGQAPRLLMYDASIRATGIPDRFSGSGSGTDFTLTISRLEPEDFAVYYCQQYERWPLTFGQGTKVEIKR

- EC50: 7.63 nM
B8: BCMA (PR)-CD28v15 P1AE9053, BCMA arm (antibody, V domains shown)
VH: B7 VH
VL: B7 VL
